The record followed here is patent US20150344570A1 (published 2015).

The target in one assay is T1, FcγRIIa H (human, UniProt P12318 34-217).
T1 construct: extracellular domain; also called FcγRIIa type H; 2aH; not shown: His tag at the C terminus
T1 sequence (looked up): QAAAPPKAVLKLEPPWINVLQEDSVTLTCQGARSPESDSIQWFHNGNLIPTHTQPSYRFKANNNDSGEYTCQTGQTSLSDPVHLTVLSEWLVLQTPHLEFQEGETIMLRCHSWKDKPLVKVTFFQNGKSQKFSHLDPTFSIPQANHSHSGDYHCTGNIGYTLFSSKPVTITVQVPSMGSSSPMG
The assay is described as follows: SPR (Biacore), antibody captured, FcγR as analyte; binding relative to GpH7-A5/GpH7-B3/GpL16-k0 = 100. The method, then: (§1) The heterodimerized antibodies He Abs in which one of the H chains was introduced with an alteration were assayed for their binding activities to each activating FcγR and inhibitory FcγR according to the method described in Example 4. […] The activating FcγRs in FIGS. 26, 27, 28, and 29 are FcγRIa, FcγRIIa (R), FcγRIIa (H), and FcγRIIIa, respectively.
(§2) Analysis of interaction between objective antibody and the FcγR was carried out using Biacore T100 (GE Healthcare). HBS-EP+ (GE Healthcare) was used as the running buffer, and the measurement temperature was set to 25° C. Chips produced by immobilizing the antigen peptide by the amine coupling method to a Series S Sencor Chip CM5 (GE Healthcare), or alternatively, chips produced by allowing preliminarily biotinylated antigen peptides to interact with and immobilize onto a Series S Sensor Chip SA (certified) (GE Healthcare) were used. Antibodies of interest were captured onto an antigen peptide-immobilized chip, and allowed to interact to each FcγR diluted with running buffer. To regenerate and repeatedly use the chip, the antibodies captured on the chip were washed off by reacting 10 mM glycine-HCl, pH 1.5.

The target of the next assay is T2, FcγRIIb (human, UniProt P31994 43-217).
T2 construct: extracellular domain; also called 2b; not shown: His tag at the C terminus
T2 sequence (looked up): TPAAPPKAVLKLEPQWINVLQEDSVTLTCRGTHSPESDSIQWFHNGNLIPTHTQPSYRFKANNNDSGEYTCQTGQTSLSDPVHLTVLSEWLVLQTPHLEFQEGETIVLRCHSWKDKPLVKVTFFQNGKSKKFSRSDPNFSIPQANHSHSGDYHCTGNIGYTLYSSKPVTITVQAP
The description is as above. The method, then:
as §1, §2

B1: GpH7-A5/GpH7-B3 variant I332_16H/GpL16-k0 (antibody, human IgG1, kappa)
heavy 1: not shown
heavy 2: not shown
light: DIVMTQSPLSLPVTPGEPASISCQASESLVHSNRNTYLHWYLQKPGQSPQLLIYKVSNRFSGVPDRFSGSGSGTDFTLKISRVEAEDVGVYYCSQNTHVPPTFGQGTKVEIERTVAAPSVFIFPPSDEQLKSGTASVVCLLNNFYPREAKVQWKVDNALQSGNSQESVTEQDSKDSTYSLSSTLTLSKADYEKHKVYACEVTHQGLSSPVTKSFNRGEC
notes: Heterodimerized IgG1; mutation in the GpH7-B3 chain only; also called He Ab
Take B1: the He/Con_2aH in the assay with FcγRIIa H was 109 % of control. For the same molecule, the He/Con_2b with FcγRIIb was 93 % of control.

B2: GpH7-A5/GpH7-B3 variant I336_18N/GpL16-k0 (antibody, human IgG1, kappa)
heavy 1: not shown
heavy 2: not shown
light: DIVMTQSPLSLPVTPGEPASISCQASESLVHSNRNTYLHWYLQKPGQSPQLLIYKVSNRFSGVPDRFSGSGSGTDFTLKISRVEAEDVGVYYCSQNTHVPPTFGQGTKVEIERTVAAPSVFIFPPSDEQLKSGTASVVCLLNNFYPREAKVQWKVDNALQSGNSQESVTEQDSKDSTYSLSSTLTLSKADYEKHKVYACEVTHQGLSSPVTKSFNRGEC
notes: as for B1
Turning to B2, the He/Con_2aH with FcγRIIa H was 103 % of control. The He/Con_2b in the assay with FcγRIIb is 97.6 % of control.

B3: GpH7-A5/GpH7-B3 variant S324_10E/GpL16-k0 (antibody, human IgG1, kappa)
heavy 1: not shown
heavy 2: not shown
light: DIVMTQSPLSLPVTPGEPASISCQASESLVHSNRNTYLHWYLQKPGQSPQLLIYKVSNRFSGVPDRFSGSGSGTDFTLKISRVEAEDVGVYYCSQNTHVPPTFGQGTKVEIERTVAAPSVFIFPPSDEQLKSGTASVVCLLNNFYPREAKVQWKVDNALQSGNSQESVTEQDSKDSTYSLSSTLTLSKADYEKHKVYACEVTHQGLSSPVTKSFNRGEC
notes: as for B1
Take B3: the He/Con_2aH with FcγRIIa H is 103 % of control. Besides, the He/Con_2b in the assay with FcγRIIb was 77.4 % of control.

B4: GpH7-A5/GpH7-B3 variant K326_12R/GpL16-k0 (antibody, human IgG1, kappa)
heavy 1: not shown
heavy 2: not shown
light: DIVMTQSPLSLPVTPGEPASISCQASESLVHSNRNTYLHWYLQKPGQSPQLLIYKVSNRFSGVPDRFSGSGSGTDFTLKISRVEAEDVGVYYCSQNTHVPPTFGQGTKVEIERTVAAPSVFIFPPSDEQLKSGTASVVCLLNNFYPREAKVQWKVDNALQSGNSQESVTEQDSKDSTYSLSSTLTLSKADYEKHKVYACEVTHQGLSSPVTKSFNRGEC
notes: as for B1
As for B4, the He/Con_2aH in the assay with FcγRIIa H was 101 % of control. For the same molecule, the He/Con_2b with FcγRIIb is 89.2 % of control.

B5: GpH7-A5/GpH7-B3 variant S324_20W/GpL16-k0 (antibody, human IgG1, kappa)
heavy 1: not shown
heavy 2: not shown
light: DIVMTQSPLSLPVTPGEPASISCQASESLVHSNRNTYLHWYLQKPGQSPQLLIYKVSNRFSGVPDRFSGSGSGTDFTLKISRVEAEDVGVYYCSQNTHVPPTFGQGTKVEIERTVAAPSVFIFPPSDEQLKSGTASVVCLLNNFYPREAKVQWKVDNALQSGNSQESVTEQDSKDSTYSLSSTLTLSKADYEKHKVYACEVTHQGLSSPVTKSFNRGEC
notes: as for B1
Regarding B5, in the assay with FcγRIIa H, the He/Con_2aH was 103 % of control. The He/Con_2b in the assay with FcγRIIb is 87.5 % of control.

B6: GpH7-A5/GpH7-B3 variant Q295_05P/GpL16-k0 (antibody, human IgG1, kappa)
heavy 1: not shown
heavy 2: not shown
light: DIVMTQSPLSLPVTPGEPASISCQASESLVHSNRNTYLHWYLQKPGQSPQLLIYKVSNRFSGVPDRFSGSGSGTDFTLKISRVEAEDVGVYYCSQNTHVPPTFGQGTKVEIERTVAAPSVFIFPPSDEQLKSGTASVVCLLNNFYPREAKVQWKVDNALQSGNSQESVTEQDSKDSTYSLSSTLTLSKADYEKHKVYACEVTHQGLSSPVTKSFNRGEC
notes: as for B1
Consider B6, for which the He/Con_2aH in the assay with FcγRIIa H was 103 % of control. In addition, in the assay with FcγRIIb, the He/Con_2b is 67.5 % of control.

B7: GpH7-A5/GpH7-B3 variant S324_16H/GpL16-k0 (antibody, human IgG1, kappa)
heavy 1: not shown
heavy 2: not shown
light: DIVMTQSPLSLPVTPGEPASISCQASESLVHSNRNTYLHWYLQKPGQSPQLLIYKVSNRFSGVPDRFSGSGSGTDFTLKISRVEAEDVGVYYCSQNTHVPPTFGQGTKVEIERTVAAPSVFIFPPSDEQLKSGTASVVCLLNNFYPREAKVQWKVDNALQSGNSQESVTEQDSKDSTYSLSSTLTLSKADYEKHKVYACEVTHQGLSSPVTKSFNRGEC
notes: as for B1
For B7, the He/Con_2aH with FcγRIIa H was 102 % of control. Moreover, the He/Con_2b in the assay with FcγRIIb was 83.5 % of control.

B8: GpH7-A5/GpH7-B3 variant I332_18N/GpL16-k0 (antibody, human IgG1, kappa)
heavy 1: not shown
heavy 2: not shown
light: DIVMTQSPLSLPVTPGEPASISCQASESLVHSNRNTYLHWYLQKPGQSPQLLIYKVSNRFSGVPDRFSGSGSGTDFTLKISRVEAEDVGVYYCSQNTHVPPTFGQGTKVEIERTVAAPSVFIFPPSDEQLKSGTASVVCLLNNFYPREAKVQWKVDNALQSGNSQESVTEQDSKDSTYSLSSTLTLSKADYEKHKVYACEVTHQGLSSPVTKSFNRGEC
notes: as for B1
B8: the He/Con_2aH in the assay with FcγRIIa H is 110 % of control. Moreover, in the assay with FcγRIIb, the He/Con_2b was 89.9 % of control.
